From the supplement of paper PMC9112550, “Optimization of the antimicrobial peptide Bac7 by deep mutational scanning” (BMC Biology, 2022) come the findings set out here.
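Note: peptides expressed intracellularly from a pBAD plasmid library in pooled LB shake-flask culture, induced with 0.3% L-arabinose, DNA abundance read by NGS, three biological replicates, DESeq2 with apeglm shrinkage.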

In the data set the test system is Escherichia coli TOP10. In words: shrunken log2 fold change of peptide-encoding DNA abundance (4.5 h post-induction vs induction); higher = less antimicrobial activity (less host growth inhibition). Particulars: time post-induction: 4.5 h; library: site-saturation at positions 5, 18, 19, 20.
Turning to RRIRYRPPRLPRPRPRPAGGPRP, the “shrunken log2 fold change” value came to 0.148. Take RRIRDRPPRLPRPRPRPNLWPRP: the “shrunken log2 fold change” value was -0.0934. For RRIRDRPPRLPRPRPRPFQVPRP, the “shrunken log2 fold change” value is -0.609.

Take RRIRIRPPRLPRPRPRPDCRPRP: the “shrunken log2 fold change” value was -0.015.

With RRIRTRPPRLPRPRPRPSENPRP, the “shrunken log2 fold change” value was -0.0993. On to RRIRRRPPRLPRPRPRPDKMPRP, for which the “shrunken log2 fold change” value was -0.122. Consider RRIRCRPPRLPRPRPRPTLQPRP, for which the “shrunken log2 fold change” value amounted to 0.279. The figure for RRIRMRPPRLPRPRPRPDHAPRP is 0.0825; for RRIRYRPPRLPRPRPRPLEMPRP it is -0.0768. With RRIRYRPPRLPRPRPRPGCRPRP, the “shrunken log2 fold change” value is -0.0618. Regarding RRIRYRPPRLPRPRPRPSATPRP, the “shrunken log2 fold change” value was -0.104. Regarding RRIRKRPPRLPRPRPRPCSHPRP, the “shrunken log2 fold change” value was found to be 0.0663.

On to RRIRIRPPRLPRPRPRPGEMPRP, for which the “shrunken log2 fold change” value was -0.00568. Regarding RRIRLRPPRLPRPRPRPTVTPRP, the “shrunken log2 fold change” value is -0.0848. As to RRIRSRPPRLPRPRPRPIFAPRP, the “shrunken log2 fold change” value was determined as 0.192. Turning to RRIRDRPPRLPRPRPRPRSGPRP, the “shrunken log2 fold change” value was found to be 0.276. On to RRIRERPPRLPRPRPRPQDEPRP, for which the “shrunken log2 fold change” value is -0.941. The figure for RRIRPRPPRLPRPRPRPSYFPRP is -0.514; for RRIRPRPPRLPRPRPRPYKDPRP it is -0.477; for RRIRFRPPRLPRPRPRPTTLPRP it is -0.0787.

For the sequence RRIRIRPPRLPRPRPRPWVNPRP, the “shrunken log2 fold change” value was -0.722. RRIRERPPRLPRPRPRPWVGPRP: the “shrunken log2 fold change” value stood at 0.0249. For the sequence RRIRLRPPRLPRPRPRPTGMPRP, the “shrunken log2 fold change” value came out at 0.056. Turning to RRIRNRPPRLPRPRPRPWFNPRP, the “shrunken log2 fold change” value is -0.448. As to RRIRRRPPRLPRPRPRPQCYPRP, the “shrunken log2 fold change” value is -0.136. Next, RRIRMRPPRLPRPRPRPSFKPRP: -0.0765; RRIRARPPRLPRPRPRPIKQPRP: -0.0628. The figure for RRIRKRPPRLPRPRPRPPQRPRP is 1.08; for RRIRFRPPRLPRPRPRPHFDPRP it is -0.107.

For RRIRHRPPRLPRPRPRPPHAPRP, the “shrunken log2 fold change” value is 0.334. As for RRIRDRPPRLPRPRPRPGMNPRP, the “shrunken log2 fold change” value stood at 0.164. With RRIRQRPPRLPRPRPRPICHPRP, the “shrunken log2 fold change” value was -0.14. The figure for RRIRVRPPRLPRPRPRPNWRPRP is 0.4; for RRIRYRPPRLPRPRPRPWQDPRP it is -0.122; for RRIRGRPPRLPRPRPRPLPNPRP it is 0.781.

On to RRIRWRPPRLPRPRPRPCKMPRP, for which the “shrunken log2 fold change” value is -0.184. Turning to RRIRVRPPRLPRPRPRPHYEPRP, the “shrunken log2 fold change” value was -0.173. Next, RRIRHRPPRLPRPRPRPERIPRP: -0.0507. As for RRIRMRPPRLPRPRPRPNEMPRP, the “shrunken log2 fold change” value was determined as 0.318. With RRIRIRPPRLPRPRPRPSTRPRP, the “shrunken log2 fold change” value was -0.54.

RRIRTRPPRLPRPRPRPDVNPRP: the “shrunken log2 fold change” value stood at 0.21. Turning to RRIRTRPPRLPRPRPRPESIPRP, the “shrunken log2 fold change” value is -0.114. Regarding RRIRCRPPRLPRPRPRPSDKPRP, the “shrunken log2 fold change” value was -0.207.

For RRIRARPPRLPRPRPRPNVGPRP, the “shrunken log2 fold change” value was determined as 0.251.

Regarding RRIRERPPRLPRPRPRPGCDPRP, the “shrunken log2 fold change” value was 0.0125.

In the case of RRIRSRPPRLPRPRPRPPEPPRP, the “shrunken log2 fold change” value came to 0.373. Consider RRIRFRPPRLPRPRPRPVRDPRP, for which the “shrunken log2 fold change” value amounted to 1.66. Regarding RRIRSRPPRLPRPRPRPILYPRP, the “shrunken log2 fold change” value is -0.481.

With RRIRMRPPRLPRPRPRPYQMPRP, the “shrunken log2 fold change” value was 0.119. For RRIRNRPPRLPRPRPRPQPMPRP, the “shrunken log2 fold change” value is -0.111. As for RRIRRRPPRLPRPRPRPRHDPRP, the “shrunken log2 fold change” value turned out to be 0.0104. Take RRIRLRPPRLPRPRPRPNSYPRP: the “shrunken log2 fold change” value was -0.3. Next, RRIRVRPPRLPRPRPRPPSTPRP: 0.238; RRIRSRPPRLPRPRPRPCPCPRP: -0.138; RRIRGRPPRLPRPRPRPMLDPRP: 0.485.

With RRIRCRPPRLPRPRPRPLFWPRP, the “shrunken log2 fold change” value turned out to be 0.153. RRIRCRPPRLPRPRPRPPEWPRP: the “shrunken log2 fold change” value was determined as 0.575. Take RRIRWRPPRLPRPRPRPLMFPRP: the “shrunken log2 fold change” value was -0.122. As for RRIRKRPPRLPRPRPRPGDVPRP, the “shrunken log2 fold change” value came to 0.278. Regarding RRIRCRPPRLPRPRPRPMSNPRP, the “shrunken log2 fold change” value was -0.64. Take RRIRERPPRLPRPRPRPPYAPRP: the “shrunken log2 fold change” value was -0.208. Next, RRIRLRPPRLPRPRPRPCDIPRP: -0.0237; RRIRLRPPRLPRPRPRPIATPRP: 0.173; RRIRVRPPRLPRPRPRPTPAPRP: 0.448. As for RRIRHRPPRLPRPRPRPSKEPRP, the “shrunken log2 fold change” value was -0.0697.

As for RRIRDRPPRLPRPRPRPLKNPRP, the “shrunken log2 fold change” value was 0.0245. As for RRIRGRPPRLPRPRPRPNTVPRP, the “shrunken log2 fold change” value is -0.0703. The figure for RRIRVRPPRLPRPRPRPLFNPRP is -0.465; for RRIRLRPPRLPRPRPRPQQPPRP it is -0.208; for RRIRPRPPRLPRPRPRPQCKPRP it is -0.398. Regarding RRIRDRPPRLPRPRPRPIFMPRP, the “shrunken log2 fold change” value is -0.285.

As to RRIRTRPPRLPRPRPRPIMDPRP, the “shrunken log2 fold change” value was -0.233. For RRIRGRPPRLPRPRPRPSCHPRP, the “shrunken log2 fold change” value is 0.175. With RRIRERPPRLPRPRPRPPVYPRP, the “shrunken log2 fold change” value came out at 0.00394. For RRIRERPPRLPRPRPRPDCCPRP, the “shrunken log2 fold change” value is -0.157. The figure for RRIRSRPPRLPRPRPRPNGSPRP is -0.21; for RRIRSRPPRLPRPRPRPAHRPRP it is -0.0259; for RRIRERPPRLPRPRPRPFFKPRP it is -0.37. Turning to RRIRERPPRLPRPRPRPSFGPRP, the “shrunken log2 fold change” value turned out to be 0.189. As for RRIRHRPPRLPRPRPRPEVKPRP, the “shrunken log2 fold change” value stood at 0.104.

Take RRIRMRPPRLPRPRPRPEMAPRP: the “shrunken log2 fold change” value is 3.69. Next, RRIRSRPPRLPRPRPRPHGLPRP: -0.0195; RRIRIRPPRLPRPRPRPICIPRP: -0.127; RRIRARPPRLPRPRPRPHPAPRP: 0.478. The figure for RRIRNRPPRLPRPRPRPMEKPRP is 0.0048; for RRIRARPPRLPRPRPRPGWQPRP it is 0.0839; for RRIRERPPRLPRPRPRPTESPRP it is 5.08.

Turning to RRIRCRPPRLPRPRPRPPQKPRP, the “shrunken log2 fold change” value came to 0.627. The figure for RRIRMRPPRLPRPRPRPCENPRP is 0.0192; for RRIRPRPPRLPRPRPRPMIDPRP it is -0.16; for RRIRCRPPRLPRPRPRPPVPPRP it is 0.587. RRIRERPPRLPRPRPRPTFGPRP: the “shrunken log2 fold change” value worked out at 0.0107. As for RRIRGRPPRLPRPRPRPSGWPRP, the “shrunken log2 fold change” value is 1.52. Next, RRIRLRPPRLPRPRPRPAGKPRP: -0.132.

Consider RRIRTRPPRLPRPRPRPEHAPRP, for which the “shrunken log2 fold change” value was -0.108.

Take RRIRQRPPRLPRPRPRPHLAPRP: the “shrunken log2 fold change” value was -0.0779.

For the sequence RRIRARPPRLPRPRPRPHYHPRP, the “shrunken log2 fold change” value was -0.332. As to RRIRRRPPRLPRPRPRPPTNPRP, the “shrunken log2 fold change” value came to 0.643. Next, RRIRMRPPRLPRPRPRPAKCPRP: 0.147. Next, RRIRLRPPRLPRPRPRPCLCPRP: -0.0557; RRIRFRPPRLPRPRPRPEDGPRP: 0.333; RRIRCRPPRLPRPRPRPTVNPRP: -0.184. For RRIRFRPPRLPRPRPRPTQFPRP, the “shrunken log2 fold change” value came out at 0.153. For the sequence RRIRRRPPRLPRPRPRPYIHPRP, the “shrunken log2 fold change” value is -0.794. For RRIRKRPPRLPRPRPRPCIEPRP, the “shrunken log2 fold change” value was -0.00715.

For the sequence RRIRHRPPRLPRPRPRPHKWPRP, the “shrunken log2 fold change” value is -0.0897. As for RRIRKRPPRLPRPRPRPRAMPRP, the “shrunken log2 fold change” value was -0.107. As to RRIRTRPPRLPRPRPRPWWLPRP, the “shrunken log2 fold change” value turned out to be 0.125.

With RRIRDRPPRLPRPRPRPLERPRP, the “shrunken log2 fold change” value was found to be 0.464. As to RRIRTRPPRLPRPRPRPHGKPRP, the “shrunken log2 fold change” value is -0.209. Consider RRIRFRPPRLPRPRPRPMAYPRP, for which the “shrunken log2 fold change” value was -0.0672. Turning to RRIRYRPPRLPRPRPRPDIDPRP, the “shrunken log2 fold change” value is -0.172. Regarding RRIRTRPPRLPRPRPRPVIWPRP, the “shrunken log2 fold change” value is 0.128. As for RRIRLRPPRLPRPRPRPTCVPRP, the “shrunken log2 fold change” value worked out at 0.0314. As for RRIRARPPRLPRPRPRPGSIPRP, the “shrunken log2 fold change” value is -0.283. As to RRIRRRPPRLPRPRPRPETSPRP, the “shrunken log2 fold change” value came to 0.4. Next, RRIRERPPRLPRPRPRPSTQPRP: -0.177; RRIRGRPPRLPRPRPRPTASPRP: 1.49; RRIRLRPPRLPRPRPRPATLPRP: -0.12. For the sequence RRIRYRPPRLPRPRPRPKMLPRP, the “shrunken log2 fold change” value worked out at 0.0981. Regarding RRIRWRPPRLPRPRPRPICAPRP, the “shrunken log2 fold change” value amounted to 0.291. With RRIRDRPPRLPRPRPRPRCSPRP, the “shrunken log2 fold change” value was -0.0967.

In the case of RRIRLRPPRLPRPRPRPAEKPRP, the “shrunken log2 fold change” value was -0.0786. RRIRNRPPRLPRPRPRPSWHPRP: the “shrunken log2 fold change” value is -0.535. Next, RRIRTRPPRLPRPRPRPDIAPRP: -0.0105.
